The text below walks through data of article PMC8301994, “Kinetic Constraints in the Specific Interaction between Phosphorylated Ubiquitin and Proteasomal Shuttle Factors” (Biomolecules, 2021).

One may read the Kd as the equilibrium constant for the complex coming apart. The koff is a measure of how fast the partners let go of each other. The term kon denotes the second-order rate constant of association.

What all share (conditions): both partners purified
The target of assay [1] is T1, S65-phosphorylated ubiquitin (human, UniProt P0CG48 1-76, phosphoserine at 65).
T1 construct: ubiquitin, human; the cut product of the ubiquitin precursor; phosphorylated at S65 by PINK1; One chemical species that exchanges slowly between two conformations, pUbRL and pUbRT; The printed KD, kon and koff are defined for the pUbRL state; 15N-labelled or unlabelled, depending on the experiment; also called pUb; pUbRL (C-terminally relaxed conformation); source: E. coli BL21 star, purified; …
In words: NMR titration; 1H-15N HSQC; 100 uM 15N-labeled Ub or pUb titrated with unlabeled UBA (22.7 to 340.4 uM); 20 mM HEPES, 150 mM NaCl, pH 7.4, 25 C; CSPs of pUb fitted with the revised model of coupled pUbRL/pUbRT equilibria (KD is for pUbRL), CSPs of Ub with a simple one-site model.

Assay [2] addresses T2, Human ubiquitin (unmodified) (human, UniProt P0CG48 1-76).
T2 construct: ubiquitin, human; the cut product of the ubiquitin precursor; cloned into pET11a; 15N-labelled in the NMR titrations; also called unmodified Ub; source: E. coli BL21 star, purified (Sepharose SP, Sephacryl S100)
Described as above.

Assay [3] concerns the target T1, S65-phosphorylated ubiquitin. In words: NMR CPMG relaxation dispersion; 15N-labeled Ubqln2-UBA 300 uM with 228 uM unlabeled pUb (~50% saturation); 20 mM HEPES, 150 mM NaCl, pH 7.4; two magnetic fields, global fit; kon and koff calculated from kex and the KD.
The target is the same in assay [4]. Put plainly: NMR CPMG relaxation dispersion; 15N-labeled Ubqln2-UBA 300 uM with 32 uM unlabeled pUb (~10% saturation); 20 mM HEPES, 150 mM NaCl, pH 7.4; two magnetic fields, global fit; kon and koff calculated from kex and the KD.

B1: Human Rad23A-UBA2 (residues 315 to 363) (domain or fragment)
chain: not shown
notes: UV excision repair protein Rad23A, human, second UBA domain (UBA2), residues 315 to 363; synthetic gene with optimized codons in pET11a; 15N-labelled in the CPMG experiment; also called Rad23-UBA2; second UBA domain (UBA2) from Rad23A; source: E. coli BL21 (DE3), purified (Ni-NTA, Sephacryl S100; TEV cleavage, second Ni-NTA, Sephacryl S100); not shown: thioredoxin, N-terminal, cleaved; His6, …
For B1, the Kd in assay [1] was determined as 404 ± 38.8 µM; in assay [2], 356 ± 56 µM.

B2: Human Ubqln2-UBA (residues 578 to 621) (domain or fragment, UniProt Q9UHD9 578-621, looked up)
chain: PEVRFQQQLEQLNAMGFLNREANLQALIATGGDINAAIERLLGS
notes: Ubiquilin-2 (Ubqln2), human, UBA domain, residues 578 to 621; synthetic gene with optimized codons in pET11a; 15N- or 15N/13C-labelled in some experiments; also called UBA domain from Ubqln2; Ubiqulin-2 UBA; source: E. coli BL21 (DE3), purified (Ni-NTA, Sephacryl S100; TEV cleavage, second Ni-NTA, Sephacryl S100); not shown: thioredoxin, N-terminal, cleaved; His6, N-terminal, cleaved
Take B2: the Kd in assay [1] worked out at 43.3 ± 3.6 µM; in assay [2], 33 ± 3.7 µM. The koff in assay [3] is 678 ± 61 s⁻¹; in assay [4] it was 293 ± 27.5 s⁻¹. The kon in assay [3] is 1.56e+07 ± 1.4e+06 M⁻¹ s⁻¹; in assay [4], 6.8e+06 ± 600000 M⁻¹ s⁻¹.
